Positions count from the first letter of the chain named.
B1: DLL3#2/CD3#1 (bispecific antibody, human IgG1, kappa, lambda, L234A L235A)
chain 1: DIQMTQSPSAMSASVGDRVTITCRASQGISNYLAWFQQKPGKVPEPLIYAASSLQSGVPSRFSGSGSVTEFTLTISSLQPEDFATYYCLQHNSSPYTFGQGTKLEIKRTVAAPSVFIFPPSDEQLKSGTASVVCLLNNFYPREAKVQWKVDNALQSGNSQESVTEQDSKDSTYSLSSTLTLSKADYEKHKVYACEVTHQGLSSPVTKSFNRGECGGGGSEGKSSGSGSESKSTEGKSSGSGSESKSTGGGGSQVQLVQSGAEVKKPGASVKVSCKASGYTFTSYYMHWVRQAPGQGLEWMGIINPSGGSTSYAQKFQGRVTMTRDTSTSTVYMELSSLRSEDTAVYYCARGEAVGGNYYYYGMDVWGQGTTVTVSSASTKGPSVFPLAPSSKSTSGGTAALGCLVKDYFPEPVTVSWNSGALTSGVHTFPAVLQSSGLYSLSSVVTVPSSSLGTQTYICNVNHKPSNTKVDKRVEPKSCDKTHTCPPCPAPEAAGGPSVFLFPPKPKDTLMISRTPEVTCVVVDVSHEDPEVKFNWYVDGVEVHNAKTKPREEQYNSTYRVVSVLTVLHQDWLNGKEYKCKVSNKALPAPIEKTISKAKGQPREPQVYTLPPSREEMTKNQVSLWCLVKGFYPSDIAVEWESNGQPENNYKTTPPVLDSDGSFFLYSKLTVDKSRWQQGNVFSCSVMHEALHNHYTQKSLSLSPG
chain 2: EAVVTQEPSLTVSPGGTVTLTCRSSTGAVTTSNYANWVQEKPGQLPRGLIGGTNKRAPWVPARFSGSLLGGKAALTLSGAQPEDEAEYFCALWYSNLWVFGGGTKLTVLGQPKAAPSVTLFPPSSEELQANKATLVCLISDFYPGAVKVAWKADGSPVNTGVETTTPSKQSNNKYAASSYLSLTPEQWKSHRSYSCQVTHEGSTVEKTVAPAECSGGGGSEGKSSGSGSESKSTEGKSSGSGSESKSTGGGGSEVQLVESGGGLVQPGGSLKLSCAASGFTFNTYAMNWVRQAPGKGLEWVARIRSKYNNYATYYADSVKDRFTISRDDSKNTAYLQMNNLKTEDTAVYYCVRHGNFGNSYVSWFAYWGQGTLVTVSAASTKGPSVFPLAPSSKSTSGGTAALGCLVKDYFPEPVTVSWNSGALTSGVHTFPAVLQSSGLYSLSSVVTVPSSSLGTQTYICNVNHKPSNTKVDKRVEPKSCDKTHTCPPCPAPEAAGGPSVFLFPPKPKDTLMISRTPEVTCVVVDVSHEDPEVKFNWYVDGVEVHNAKTKPREEQYNSTYRVVSVLTVLHQDWLNGKEYKCKVSNKALPAPIEKTISKAKGQPREPQVYTLPPSREEMTKNQVSLSCAVKGFYPSDIAVEWESNGQPENNYKTTPPVLDSDGSFFLVSKLTVDKSRWQQGNVFSCSVMHEALHNRFTQKSLSLSPG
notes: Heterodimer of one DLL3 chain and one CD3 chain (scFab-Fc, knob-in-hole)
B2: DLL3#6/CD3#1 (bispecific antibody, human IgG1, kappa, lambda, L234A L235A)
chain 1: DIQLTQSPSFLSTSVGDRVTITCRASQDISNYFAWYQQKPGKAPKLLIYAASTLQSGVPSRFSGGGSGTEFTLTISSLQPEDFATYYCQQLNSYPYTFGQGTKLEIKRTVAAPSVFIFPPSDEQLKSGTASVVCLLNNFYPREAKVQWKVDNALQSGNSQESVTEQDSKDSTYSLSSTLTLSKADYEKHKVYACEVTHQGLSSPVTKSFNRGECGGGGSEGKSSGSGSESKSTEGKSSGSGSESKSTGGGGSQVQLQESGPGLVKPSETLSLTCTVSGGSISSYFWSWIRQPAGKGLEWIGRIYTSGSTNYNPSLNSRLTMSVDTSKNQFSLKLSSVTAADTAVYYCARRGDWGGFDIWGQGTVVTVSSASTKGPSVFPLAPSSKSTSGGTAALGCLVKDYFPEPVTVSWNSGALTSGVHTFPAVLQSSGLYSLSSVVTVPSSSLGTQTYICNVNHKPSNTKVDKRVEPKSCDKTHTCPPCPAPEAAGGPSVFLFPPKPKDTLMISRTPEVTCVVVDVSHEDPEVKFNWYVDGVEVHNAKTKPREEQYNSTYRVVSVLTVLHQDWLNGKEYKCKVSNKALPAPIEKTISKAKGQPREPQVYTLPPSREEMTKNQVSLWCLVKGFYPSDIAVEWESNGQPENNYKTTPPVLDSDGSFFLYSKLTVDKSRWQQGNVFSCSVMHEALHNHYTQKSLSLSPG
chain 2: B1 chain 2
notes: as for B1
B3: DLL3#3/CD3#1 (bispecific antibody, human IgG1, kappa, lambda, L234A L235A)
chain 1: DIQMTQSPSAMSASVGDRVTITCRASQGISNYLVWFQQKPGKAPKRLIYAVSSLYSGVPSRFSGSGSGTEFTLTISSLQPEDFATYYCLQHDSYPYTFGQGTKLEIKRTVAAPSVFIFPPSDEQLKSGTASVVCLLNNFYPREAKVQWKVDNALQSGNSQESVTEQDSKDSTYSLSSTLTLSKADYEKHKVYACEVTHQGLSSPVTKSFNRGECGGGGSEGKSSGSGSESKSTEGKSSGSGSESKSTGGGGSQVQLVQSGAEVKKPGASVKVSCKASGYTFTSYYVHWVRQAPGQGLEWMVIINPGGGTTSYAQKFLGRVTMTRDTSTNTVYMELKSLRSEDTAVYYCARGEAVTGNYFYYGMDVWGQGTTVTVSSASTKGPSVFPLAPSSKSTSGGTAALGCLVKDYFPEPVTVSWNSGALTSGVHTFPAVLQSSGLYSLSSVVTVPSSSLGTQTYICNVNHKPSNTKVDKRVEPKSCDKTHTCPPCPAPEAAGGPSVFLFPPKPKDTLMISRTPEVTCVVVDVSHEDPEVKFNWYVDGVEVHNAKTKPREEQYNSTYRVVSVLTVLHQDWLNGKEYKCKVSNKALPAPIEKTISKAKGQPREPQVYTLPPSREEMTKNQVSLWCLVKGFYPSDIAVEWESNGQPENNYKTTPPVLDSDGSFFLYSKLTVDKSRWQQGNVFSCSVMHEALHNHYTQKSLSLSPG
chain 2: B1 chain 2
notes: as for B1
B4: DLL3#3/CD3#2 (bispecific antibody, human IgG1, kappa, lambda, L234A L235A)
chain 1: B3 chain 1
chain 2: B1 chain 2 with N309I
notes: as for B1

Each binder was assayed against T1, FLAG-tagged human DLL1 full length (human, UniProt O00548 1-723) (assay: flow cytometry on HEK293 cells expressing human DLL1 (HEK293-huDLL1), PE anti-human secondary, control: secondary antibody only).
T1 construct: also called human DLL1 on HEK293 cells
T1 sequence: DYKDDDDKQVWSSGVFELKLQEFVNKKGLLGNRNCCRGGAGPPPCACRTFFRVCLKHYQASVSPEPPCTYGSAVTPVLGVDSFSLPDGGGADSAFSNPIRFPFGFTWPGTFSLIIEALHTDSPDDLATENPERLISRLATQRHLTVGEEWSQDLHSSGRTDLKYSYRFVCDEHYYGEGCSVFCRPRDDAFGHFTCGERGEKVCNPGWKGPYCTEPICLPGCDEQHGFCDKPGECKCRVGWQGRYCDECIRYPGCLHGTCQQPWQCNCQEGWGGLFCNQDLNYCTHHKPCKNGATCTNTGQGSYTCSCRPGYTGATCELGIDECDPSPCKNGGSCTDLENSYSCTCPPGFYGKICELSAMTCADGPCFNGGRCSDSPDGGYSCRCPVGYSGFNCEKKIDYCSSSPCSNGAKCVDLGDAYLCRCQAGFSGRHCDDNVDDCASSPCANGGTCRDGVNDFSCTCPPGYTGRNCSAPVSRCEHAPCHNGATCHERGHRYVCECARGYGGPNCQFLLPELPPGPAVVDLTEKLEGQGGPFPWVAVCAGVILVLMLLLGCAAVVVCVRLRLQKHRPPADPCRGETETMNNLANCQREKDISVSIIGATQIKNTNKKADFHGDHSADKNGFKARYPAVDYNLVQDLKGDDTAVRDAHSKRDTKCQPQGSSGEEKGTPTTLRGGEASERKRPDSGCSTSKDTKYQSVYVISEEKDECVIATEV
Procedure: (§1) Bound molecules were detected with PE-conjugated anti-human secondary antibody (Sigma-Aldrich, #P8047). As negative control, cells were incubated with secondary antibody only. The samples were measured by flow-cytometry.

| Binder | binding result |
| --- | --- |
| B1 | no binding (tested: 1.6 nM) |
| B2 | no binding (tested: 1.6 nM) |
| B3 | no binding (tested: 1.6 nM) |
| B4 | no binding (tested: 1.6 nM) |

These binders were tested against T2, Human DLL3-His (human, UniProt Q9NYJ7 27-492) (assay: SPR (ProteOn XPR36), bispecific captured on protein A/G, hu DLL3 as analyte, Example 4B).
T2 construct: also called huDLL3-His; hu DLL3
T2 sequence: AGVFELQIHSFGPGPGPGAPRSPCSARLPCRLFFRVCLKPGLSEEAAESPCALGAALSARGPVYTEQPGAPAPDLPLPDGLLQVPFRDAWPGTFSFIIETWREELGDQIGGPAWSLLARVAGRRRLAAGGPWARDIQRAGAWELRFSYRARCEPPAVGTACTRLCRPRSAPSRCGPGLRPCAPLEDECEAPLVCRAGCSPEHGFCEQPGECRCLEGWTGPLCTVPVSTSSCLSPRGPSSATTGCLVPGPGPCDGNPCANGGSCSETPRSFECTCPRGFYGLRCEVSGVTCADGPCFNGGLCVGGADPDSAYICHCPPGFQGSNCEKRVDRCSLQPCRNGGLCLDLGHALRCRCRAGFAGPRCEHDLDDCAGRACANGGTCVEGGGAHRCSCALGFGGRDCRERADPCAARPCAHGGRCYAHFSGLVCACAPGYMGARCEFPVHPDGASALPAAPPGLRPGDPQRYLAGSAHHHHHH
Procedure, shortened: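 Bispecific constructs captured on protein A/G for 200 s at 30 μl/min, baseline stabilized with PBS-T-EDTA. Human DLL3 analyte injected 300 s at 30 μl/min; dissociation followed for 1800 s.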

| Binder | Kd [nM] |
| --- | --- |
| B1 | 0.091 |
| B2 | 0.152 |
| B3 | 0.075 |
| B4 | 0.12 |

These binders were tested against T3, human DLL3 (endogenous, on SCLC cell lines NCI-H82 and SHP77 and in SCLC tissue) (human, UniProt Q9NYJ7 27-618) (assay: cell-based or functional assay).
T3 sequence (looked up): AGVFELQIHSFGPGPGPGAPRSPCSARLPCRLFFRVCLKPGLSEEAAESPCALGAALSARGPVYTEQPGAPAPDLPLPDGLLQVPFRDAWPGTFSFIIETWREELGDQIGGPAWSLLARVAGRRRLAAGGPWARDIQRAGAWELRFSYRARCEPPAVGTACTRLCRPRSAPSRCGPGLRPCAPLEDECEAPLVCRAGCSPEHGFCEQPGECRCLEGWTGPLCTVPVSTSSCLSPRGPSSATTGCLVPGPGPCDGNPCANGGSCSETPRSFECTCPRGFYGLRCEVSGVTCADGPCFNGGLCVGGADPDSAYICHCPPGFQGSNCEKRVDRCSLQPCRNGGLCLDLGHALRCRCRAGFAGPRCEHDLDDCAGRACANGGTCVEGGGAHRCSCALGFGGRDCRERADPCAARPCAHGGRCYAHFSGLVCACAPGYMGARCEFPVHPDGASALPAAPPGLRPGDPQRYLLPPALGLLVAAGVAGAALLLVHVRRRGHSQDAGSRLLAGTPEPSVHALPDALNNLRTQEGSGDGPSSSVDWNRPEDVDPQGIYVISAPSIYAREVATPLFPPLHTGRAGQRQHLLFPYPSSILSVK

| Binder | EC90, 72 hour cytotoxicity assay, purified T cells as effector cells, NCI-H82 target cells [nM] | EC90, 72 hour cytotoxicity assay, purified T cells as effector cells, SHP77 target cells [nM] |
| --- | --- | --- |
| B1 | 1.51 | 0.16 |
| B3 | 0.27 | 0.02 |
| B4 | 2.5 | 3 |

What follows are binders tested against T4, trypsin inhibitor from glycine max soybean (Glycine max (soybean)) (assay: SPR (Biacore T200), trypsin inhibitor on CM5 chip, sample at 1 µM).
T4 construct: also called Tryp
T4 sequence (P01070 25-205): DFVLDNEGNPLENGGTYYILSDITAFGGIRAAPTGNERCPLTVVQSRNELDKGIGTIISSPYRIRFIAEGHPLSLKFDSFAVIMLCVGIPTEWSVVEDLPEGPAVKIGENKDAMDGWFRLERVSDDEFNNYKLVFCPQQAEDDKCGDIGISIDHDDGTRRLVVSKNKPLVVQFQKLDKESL
Excerpt: To prepare the surface for the non-specific binding experiment, chicken egg white lysozyme and trypsin inhibitor from glycine max soybean were coupled manually to a series S CM5 chip with the surface density of 3000-5000 RU using the amine coupling kit according to the manufacture instructions.

| Binder | Non-specific binding (RU) |
| --- | --- |
| B1 | 2 |
| B2 | 0 |
| B3 | 85 |
| B4 | 36 |

Each binder was assayed against T5, FLAG-tagged human DLL4 full length (human, UniProt Q9NR61 1-685) (assay: flow cytometry on HEK293 cells expressing human DLL4 (HEK293-huDLL4), PE anti-human secondary, control: secondary antibody only).
T5 construct: also called human DLL4 on HEK293 cells
T5 sequence (Q9NR61 other isoform, or with tags, fused parts or gaps limits assumed): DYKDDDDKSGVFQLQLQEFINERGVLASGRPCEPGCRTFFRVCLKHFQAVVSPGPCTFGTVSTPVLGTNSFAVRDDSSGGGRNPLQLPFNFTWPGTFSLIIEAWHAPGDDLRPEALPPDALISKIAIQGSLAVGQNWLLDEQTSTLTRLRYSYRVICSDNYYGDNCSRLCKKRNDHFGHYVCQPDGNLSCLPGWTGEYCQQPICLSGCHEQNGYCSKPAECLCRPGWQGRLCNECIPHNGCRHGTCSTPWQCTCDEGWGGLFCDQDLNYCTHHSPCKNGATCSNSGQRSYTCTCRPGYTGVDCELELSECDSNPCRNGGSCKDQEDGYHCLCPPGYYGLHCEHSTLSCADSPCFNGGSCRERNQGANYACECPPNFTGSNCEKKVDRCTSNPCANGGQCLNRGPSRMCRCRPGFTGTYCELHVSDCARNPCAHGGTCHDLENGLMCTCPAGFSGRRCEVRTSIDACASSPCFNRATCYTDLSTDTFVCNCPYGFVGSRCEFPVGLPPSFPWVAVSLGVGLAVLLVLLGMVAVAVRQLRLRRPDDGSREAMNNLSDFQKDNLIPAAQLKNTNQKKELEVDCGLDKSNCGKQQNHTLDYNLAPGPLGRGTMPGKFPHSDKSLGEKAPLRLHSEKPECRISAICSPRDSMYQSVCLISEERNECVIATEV
Procedure: as §1

| Binder | binding result |
| --- | --- |
| B1 | no binding (tested: 1.6 nM) |
| B2 | no binding (tested: 1.6 nM) |
| B3 | no binding (tested: 1.6 nM) |
| B4 | no binding (tested: 1.6 nM) |
